Experimental data: PMC8809517, “Cofactor-independent RNA editing by a synthetic S-type PPR protein”

T1: GFP-9S library array, motif 4 ND N98Y;D124T (synthetic construct, N98Y;D124T)
T1 chain: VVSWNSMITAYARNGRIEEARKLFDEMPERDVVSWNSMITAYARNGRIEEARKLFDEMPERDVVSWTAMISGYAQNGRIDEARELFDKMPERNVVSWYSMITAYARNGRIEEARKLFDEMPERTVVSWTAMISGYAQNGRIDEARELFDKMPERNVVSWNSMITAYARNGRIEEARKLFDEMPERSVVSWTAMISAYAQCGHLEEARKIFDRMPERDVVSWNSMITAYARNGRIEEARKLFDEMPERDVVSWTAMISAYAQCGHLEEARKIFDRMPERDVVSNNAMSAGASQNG

T2: GFP-9S library array, motif 4 ND N98I;D124G (synthetic construct, N98I;D124G)
T2 chain: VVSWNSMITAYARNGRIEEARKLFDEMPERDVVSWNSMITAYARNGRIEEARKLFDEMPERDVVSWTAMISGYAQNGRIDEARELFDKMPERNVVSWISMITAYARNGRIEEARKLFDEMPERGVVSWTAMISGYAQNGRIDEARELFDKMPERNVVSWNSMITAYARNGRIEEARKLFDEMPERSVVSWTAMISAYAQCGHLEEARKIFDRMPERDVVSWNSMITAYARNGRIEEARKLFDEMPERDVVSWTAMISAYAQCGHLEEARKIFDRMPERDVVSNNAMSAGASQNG

T3: GFP-9S library array, motif 4 ND N98K;D124L (synthetic construct, N98K;D124L)
T3 chain: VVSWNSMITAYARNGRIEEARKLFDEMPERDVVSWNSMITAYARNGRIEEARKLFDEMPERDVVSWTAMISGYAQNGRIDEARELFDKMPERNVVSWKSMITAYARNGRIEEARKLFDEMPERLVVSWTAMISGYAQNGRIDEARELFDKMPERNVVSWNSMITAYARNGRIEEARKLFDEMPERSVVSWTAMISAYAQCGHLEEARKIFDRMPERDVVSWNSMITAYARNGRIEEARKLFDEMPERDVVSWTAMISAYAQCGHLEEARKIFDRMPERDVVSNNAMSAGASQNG

T4: GFP-9S library array, motif 4 ND N98C;D124M (synthetic construct, N98C;D124M)
T4 chain: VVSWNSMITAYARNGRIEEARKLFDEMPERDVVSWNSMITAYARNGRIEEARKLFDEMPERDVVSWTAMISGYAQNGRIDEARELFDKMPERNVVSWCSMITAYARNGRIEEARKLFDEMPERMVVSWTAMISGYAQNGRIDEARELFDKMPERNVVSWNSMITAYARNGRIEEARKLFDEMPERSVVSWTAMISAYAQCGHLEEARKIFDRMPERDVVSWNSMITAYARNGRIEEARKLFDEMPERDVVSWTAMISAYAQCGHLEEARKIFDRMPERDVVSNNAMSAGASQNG

T5: GFP-9S library array, motif 4 ND N98T;D124W (synthetic construct, N98T;D124W)
T5 chain: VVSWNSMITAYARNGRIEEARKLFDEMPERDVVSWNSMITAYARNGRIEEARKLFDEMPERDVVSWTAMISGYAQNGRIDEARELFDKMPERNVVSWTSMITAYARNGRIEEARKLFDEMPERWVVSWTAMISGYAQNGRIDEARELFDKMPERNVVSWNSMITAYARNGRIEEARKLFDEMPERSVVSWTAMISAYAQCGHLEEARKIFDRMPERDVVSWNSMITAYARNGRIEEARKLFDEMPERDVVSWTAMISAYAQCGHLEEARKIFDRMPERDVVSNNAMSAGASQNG


Experiments:
Test in all cases: high-throughput RNA pulldown from lysate on Ni-NTA beads; HRP: 50 mM Tris pH 8, 150 mM NaCl, 1 mM beta-mercaptoethanol, 50 ug/ml BSA, 3 ug/ml yeast RNA, 0.5% heparin; ITC and FP: Tris pH 8, 200 mM KCl, 5% glycerol; MST: 50 mM Tris pH 8, 200 mM NaCl, 1 mM DTT, BSA, heparin, 0.05% Tween 20
Settings in all cases: tags: N-terminal His-eGFP
[1] = molecular target: T1, GFP-9S library array, motif 4 ND …
[2] = molecular target: T2, GFP-9S library array, motif 4 ND …
[3] = molecular target: T3, GFP-9S library array, motif 4 ND …
[4] = molecular target: T4, GFP-9S library array, motif 4 ND …
[5] = molecular target: T5, GFP-9S library array, motif 4 ND …

Binder | Kd ([1]; label: 5' Cy5) | Kd ([2]; label: 5' Cy5) | Kd ([3]; label: 5' Cy5) | Kd ([4]; label: 5' Cy5) | Kd ([5]; label: 5' Cy5) | Kd ([1]; label: 5' IRDye 800CW) | Kd ([2]; label: 5' IRDye 800CW) | Kd ([3]; label: 5' IRDye 800CW) | Kd ([4]; label: 5' IRDye 800CW) | Kd ([5]; label: 5' IRDye 800CW)
AUUAGACGUGA (ssRNA) [Cy5-rpoA-G] | 105 nM | 72 nM | 73.5 nM | 113 nM | 71.6 nM |  |  |  |  | 
AUUAUACGUGA (ssRNA) [IR-rpoA-U] |  |  |  |  |  | 75 nM | 26.6 nM | 174 nM | 179 nM | 150 nM
AUUAAACGUGA (ssRNA) [IR-rpoA-A] |  |  |  |  |  | 158 nM | 40.6 nM | 151 nM | 266 nM | 125 nM
AUUACACGUGA (ssRNA) [Cy5-rpoA] | 96.3 nM | 69.2 nM | 83.5 nM | 90.5 nM | 81.5 nM |  |  |  |  | 
